We go through one substance from patent publication US20240002532A1.

This experiment concerns the target HER2 (human epidermal growth factor receptor 2) (human) (UniProt P04626). Put plainly: cell-based or functional assay.

As to “CasMab250 (H/L)-based CAR with medium spacer (IgG4 hinge & CH3 domain) and CD28-CD3ζ1XX intracellular signaling domains”, the maximal cytolysis of SKOV3 tumor cells (xCELLigence, donor T cells, E:T 1:1) is 90%.
